Results published in paper PMC10465574, “Chlorfenapyr metabolism by mosquito P450s associated with pyrethroid resistance identifies potential activation markers” (Scientific Reports, 2023).

B1: CYP9K1 (Anopheles gambiae) (protein)
chain: MLGTLASLLFSLEGVLLVALLALLYYYVVVRSTRFFADRGVPYLPPVPLLGNGADFITRKRLLTDVLSDMYHRFASHRFFGYFDFLSPIYVVRDLELVKQICIKDFDHFVNHRIQLDENHDPLFGRALFAMRDTRWRNMRTILSPAFTGSKMRLMFGLITSYCDGAVRTIRSELGADGTAELEMKELFRRFGNDIVATCAFGIEINSFRDRANAFFTLGKELTNLDGVQGLKFLAFSSFPRVMRALRLRLFSAKMTSFFRHVVMDTITQREQRGIVRHDMINLLMQARKQELRFDENENIETNGGGSQKRSVDWTDDDLTAQCTVFFFGGYDTVSTLSAFMAHELAVNPDVQERLRDEIDRVRSTIGSADKLNYETLQSMRYLDMVANETLRKWTPAPFLDRTCTKPYMLEDYDGRRVQLQPGDGLWIPAAAIMRDPQLFPEPDRFWPERFEPESAGAPVDSSAMLAFGLGPRNCIGSRFALMETKAVFFFLLTHFLLEAGPRTQHPIRLKKSSLGPCAEKGSWIRFRLRK
notes: recombinant, pCWori+ vector, E. coli membranes co-expressing An. gambiae CPR; cytochrome b5 added; with NADPH--cytochrome P450 reductase
B2: CYP6P3 (Anopheles gambiae) (protein)
chain: MELINAVLAAFIFAVSIVYLFIRNKHNYWKDNGFPYAPNPHFLFGHAKGQAQTRHGADIHQELYRYFKQRGERYGGISQFIVPSVLVIDPELAKTILVKDFNVFHDHGVFTNAKDDPLTGHLFALEGQPWRLMRQKLTPTFTSGRMKQMFGTIRDVGLELEKCMEQSYNQPEVEMKDILGRFTTDVIGTCAFGIECNTLKTTDSEFRKYGNKAFELNTMIMMKTFLASSYPTLVRNLHMKITYNDVERFFLDIVKETVDYREANNVKRNDFMNLMLQIKNKGKLDDSDDGSLGKGEVGMTQNELAAQAFVFFLAGFETSSTTQSFCLYELAKNPDIQERLREEINRAIAENGGEVTYDVVMNIKYLDNVIDETLRKYPPVESLTRVPSVDYLIPGTKHVIPKRTLVQIPAYAIQRDPDHYPDPERFNPDRFLPEEVKKRHPFTFIPFGEGPRICIGLRFGLMQTKVGLITLLRKFRFSPSARTPERVEYDPKMITIAPKAGNYLKVEKL
notes: recombinant, pCWori+ vector, E. coli membranes co-expressing An. gambiae CPR; cytochrome b5 added in metabolism assays; with NADPH--cytochrome P450 reductase

Tests used:
CYP6P3 = target: T1, CYP6P3 (Anopheles gambiae, UniProt Q8T632); assay: inhibition of diethoxyfluorescein (DEF) fluorescent probe metabolism; format: biochemical
T1 construct: recombinant, pCWori+ vector, E. coli membranes co-expressing An. gambiae CPR; cytochrome b5 added in metabolism assays; with NADPH--cytochrome P450 reductase
T1 sequence (Q8T632 1-509): B2 chain
T1 sequence (Q86QH5 1-679 partner): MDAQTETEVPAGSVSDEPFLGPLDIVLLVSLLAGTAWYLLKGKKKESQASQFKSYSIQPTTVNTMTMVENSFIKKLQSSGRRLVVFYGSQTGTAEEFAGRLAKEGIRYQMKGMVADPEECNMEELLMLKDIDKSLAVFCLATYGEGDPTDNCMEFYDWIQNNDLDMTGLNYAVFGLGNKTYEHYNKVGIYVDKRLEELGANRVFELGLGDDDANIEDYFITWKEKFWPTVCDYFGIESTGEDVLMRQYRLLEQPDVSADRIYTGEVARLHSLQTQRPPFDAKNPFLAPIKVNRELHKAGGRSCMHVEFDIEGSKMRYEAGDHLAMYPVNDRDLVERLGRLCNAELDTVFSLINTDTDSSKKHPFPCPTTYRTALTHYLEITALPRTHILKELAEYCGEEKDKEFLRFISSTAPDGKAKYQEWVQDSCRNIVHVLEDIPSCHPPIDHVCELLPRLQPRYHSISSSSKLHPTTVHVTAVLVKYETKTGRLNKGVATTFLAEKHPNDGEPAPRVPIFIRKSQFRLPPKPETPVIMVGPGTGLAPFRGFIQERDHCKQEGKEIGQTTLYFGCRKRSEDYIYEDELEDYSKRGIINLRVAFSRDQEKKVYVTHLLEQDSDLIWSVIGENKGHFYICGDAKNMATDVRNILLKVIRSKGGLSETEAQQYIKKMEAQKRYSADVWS

CYP9K1 = target: T2, CYP9K1 (Anopheles gambiae, UniProt Q8T633); assay: inhibition of chlorfenapyr depletion, HPLC; format: biochemical
T2 construct: recombinant, pCWori+ vector, E. coli membranes co-expressing An. gambiae CPR; cytochrome b5 added; with NADPH--cytochrome P450 reductase
T2 sequence (Q8T633 1-531): B1 chain
T2 sequence (Q86QH5 1-679 partner): T1 sequence (Q86QH5 1-679 partner)

[1] = substrate: CCOCn1c(-c2ccc(Cl)cc2)c(C#N)c(Br)c1C(F)(F)F; assay: tralopyril formation by HPLC, Michaelis-Menten fit; format: biochemical, Anopheles gambiae; conditions: NADPH regeneration system, 0.8 µM cytochrome b5, 50 mM potassium phosphate pH 7.4, recombinant E. coli membranes

Row | Molecule | IC50 (CYP6P3) | inhibition at 10 µM (CYP9K1) | Km [1] | kcat [1]
1 | CC1(C)C(C=C(Cl)Cl)C1C(=O)OC(C#N)c1cccc(Oc2ccccc2)c1 (stereo not drawn) [α-cypermethrin] | 16.7 µM | 56.8% |  | 
2 | CCOCn1c(-c2ccc(Cl)cc2)c(C#N)c(Br)c1C(F)(F)F [chlorfenapyr] | 30.4 µM |  |  | 
3 | B1 |  |  | 10.13 µM | 0.112 s⁻¹
4 | B2 |  |  | 16.32 µM | 0.0285 s⁻¹
